Measured values reported in patent publication US20230002460A1 (YUHAN, published 2023).
Numbering of substitutions follows the chain as printed. Names may count otherwise. Read-outs that look alike come from different tables or passages of the source. Blank lines part the entries; values can stand above or below the binder they belong to.

Key:
Test in all cases: cell-based or functional assay
[1] = molecular target: T1, GDF15 receptors GFRAL and RET, overexpressed together on HEK293 cells (UniProt Q6UXV0 19-394; P07949 29-1114, limits assumed)
T1 sequence (Q6UXV0 19-394 limits assumed, chain 1 of 2): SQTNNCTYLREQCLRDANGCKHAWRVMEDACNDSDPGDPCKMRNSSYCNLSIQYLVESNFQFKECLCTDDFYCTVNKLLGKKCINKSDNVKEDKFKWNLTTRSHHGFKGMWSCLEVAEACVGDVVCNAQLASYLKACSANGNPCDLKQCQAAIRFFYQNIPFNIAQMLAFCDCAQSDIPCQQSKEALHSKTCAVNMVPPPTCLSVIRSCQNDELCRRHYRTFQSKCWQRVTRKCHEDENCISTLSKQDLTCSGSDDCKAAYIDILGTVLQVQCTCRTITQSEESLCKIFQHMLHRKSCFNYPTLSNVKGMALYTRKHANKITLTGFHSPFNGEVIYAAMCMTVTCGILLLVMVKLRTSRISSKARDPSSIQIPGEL
T1 sequence (P07949 29-1114 limits assumed, chain 2 of 2): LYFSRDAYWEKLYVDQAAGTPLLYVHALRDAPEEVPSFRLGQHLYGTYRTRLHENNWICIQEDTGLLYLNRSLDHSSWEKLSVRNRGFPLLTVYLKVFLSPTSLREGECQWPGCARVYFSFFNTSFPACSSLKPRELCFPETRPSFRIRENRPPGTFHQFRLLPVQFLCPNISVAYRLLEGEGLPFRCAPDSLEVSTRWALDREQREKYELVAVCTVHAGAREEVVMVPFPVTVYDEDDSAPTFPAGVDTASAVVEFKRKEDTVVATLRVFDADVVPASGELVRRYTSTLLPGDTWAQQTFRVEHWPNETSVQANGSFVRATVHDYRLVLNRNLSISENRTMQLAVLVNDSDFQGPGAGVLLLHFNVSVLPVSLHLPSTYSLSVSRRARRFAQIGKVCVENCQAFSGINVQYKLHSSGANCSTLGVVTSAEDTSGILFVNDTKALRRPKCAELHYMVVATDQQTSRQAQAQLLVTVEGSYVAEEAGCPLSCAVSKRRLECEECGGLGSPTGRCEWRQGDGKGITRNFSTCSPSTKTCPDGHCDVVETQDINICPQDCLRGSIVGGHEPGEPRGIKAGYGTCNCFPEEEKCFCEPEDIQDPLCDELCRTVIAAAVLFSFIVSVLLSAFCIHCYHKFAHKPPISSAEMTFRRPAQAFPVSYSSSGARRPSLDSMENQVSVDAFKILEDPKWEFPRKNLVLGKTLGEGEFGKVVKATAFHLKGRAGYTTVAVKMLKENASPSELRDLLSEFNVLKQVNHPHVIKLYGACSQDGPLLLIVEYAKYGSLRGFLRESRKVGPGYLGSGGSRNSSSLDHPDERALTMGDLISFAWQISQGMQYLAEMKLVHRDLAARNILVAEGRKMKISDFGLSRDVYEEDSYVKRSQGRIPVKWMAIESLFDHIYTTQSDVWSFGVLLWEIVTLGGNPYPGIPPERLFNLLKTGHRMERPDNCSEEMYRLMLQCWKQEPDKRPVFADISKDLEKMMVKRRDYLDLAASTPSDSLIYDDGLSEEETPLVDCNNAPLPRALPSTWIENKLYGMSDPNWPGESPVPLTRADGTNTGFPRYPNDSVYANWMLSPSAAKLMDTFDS

[2] = molecular target: T1, GDF15 receptors GFRAL and RET, …; remark: listed apart in the source
[3] = molecular target: T1, GDF15 receptors GFRAL and RET, …; remark: listed apart in the source
[4] = molecular target: T1, GDF15 receptors GFRAL and RET, …; remark: listed apart in the source
[5] = molecular target: T1, GDF15 receptors GFRAL and RET, …; remark: listed apart in the source

B1: long-acting GDF15 fusion protein (dimer) FM2 + Fc_hole (ΔN3, G4N, D5S, H6T) (Fc fusion)
chain 1: APALAGGPSVFLFPPKPKDTLMISRTPEVTCVVVDVSHEDPEVKFNWYVDGVEVHNAKTKPREEQYNSTYRVVSVLTVLHQDWLNGKEYKCKVSNKALPAPIEKTISKAKGQPREPQVYTLPPSREEMTKNQVSLWCLVKGFYPSDIAVEWESNGQPENNYKTTPPVLDSDGSFFLYSKLTVDKSRWQQGNVFSCSVMHEALHNHYTQKSLSLSPGKGGGGSGGGGSGGGGSGGGGSGGGGSNSTCPLGPGRCCRLHTVRASLEDLGWADWVLSPREVQVTMCIGACPSQFRAANMHAQIKTSLHRLKPDTVPAPCCVPASYNPMVLIQKTDTGVSLQTYDDLLAKDCHCI
chain 2: not shown
EC50 [1]: 3.9 nM | Emax (%) [1]: 100%

B4: long-acting GDF15 fusion protein (dimer) FM10 + Fc_hole (ΔN3, WS insertion, G4N, D5S, H6T, S64R) (Fc fusion)
chain 1: APALAGGPSVFLFPPKPKDTLMISRTPEVTCVVVDVSHEDPEVKFNWYVDGVEVHNAKTKPREEQYNSTYRVVSVLTVLHQDWLNGKEYKCKVSNKALPAPIEKTISKAKGQPREPQVYTLPPSREEMTKNQVSLWCLVKGFYPSDIAVEWESNGQPENNYKTTPPVLDSDGSFFLYSKLTVDKSRWQQGNVFSCSVMHEALHNHYTQKSLSLSPGKGGGGSGGGGSGGGGSGGGGSGGGGSWSNSTCPLGPGRCCRLHTVRASLEDLGWADWVLSPREVQVTMCIGACPSQFRAANMHAQIKTRLHRLKPDTVPAPCCVPASYNPMVLIQKTDTGVSLQTYDDLLAKDCHCI
chain 2: not shown
EC50 [1]: 2.3 nM | Emax (%) [1]: 267%

B5: long-acting GDF15 fusion protein (dimer) FM9-2 + Fc_hole (ΔN2, S64R; linker GS(G4S)5) (Fc fusion)
chain 1: APEAAGGPSVFLFPPKPKDTLMISRTPEVTCVVVDVSHEDPEVKFNWYVDGVEVHNAKTKPREEQYASTYRVVSVLTVLHQDWLNGKEYKCKVSNKALPAPIEKTISKAKGQPREPQVYTLPPSREEMTKNQVSLWCLVKGFYPSDIAVEWESNGQPENNYKTTPPVLDSDGSFFLYSKLTVDKSRWQQGNVFSCSVMHEALHNHYTQKSLSLSPGKGSGGGGSGGGGSGGGGSGGGGSGGGGSNGDHCPLGPGRCCRLHTVRASLEDLGWADWVLSPREVQVTMCIGACPSQFRAANMHAQIKTRLHRLKPDTVPAPCCVPASYNPMVLIQKTDTGVSLQTYDDLLAKDCHCI
chain 2: APEAAGGPSVFLFPPKPKDTLMISRTPEVTCVVVDVSHEDPEVKFNWYVDGVEVHNAKTKPREEQYASTYRVVSVLTVLHQDWLNGKEYKCKVSNKALPAPIEKTISKAKGQPREPQVYTLPPSREEMTKNQVSLSCAVKGFYPSDIAVEWESNGQPENNYKTTPPVLDSDGSFFLVSKLTVDKSRWQQGNVFSCSVMHEALHNHYTQKSLSLSPGK
EC50 [2]: 9.5 nM | Emax (%) [2]: 111%

B7: long-acting GDF15 fusion protein (dimer) FM9-6 + Fc_hole (ΔN2, S64R; linker GS(EAAAK)5) (Fc fusion)
chain 1: APEAAGGPSVFLFPPKPKDTLMISRTPEVTCVVVDVSHEDPEVKFNWYVDGVEVHNAKTKPREEQYASTYRVVSVLTVLHQDWLNGKEYKCKVSNKALPAPIEKTISKAKGQPREPQVYTLPPSREEMTKNQVSLWCLVKGFYPSDIAVEWESNGQPENNYKTTPPVLDSDGSFFLYSKLTVDKSRWQQGNVFSCSVMHEALHNHYTQKSLSLSPGKGSEAAAKEAAAKEAAAKEAAAKEAAAKNGDHCPLGPGRCCRLHTVRASLEDLGWADWVLSPREVQVTMCIGACPSQFRAANMHAQIKTRLHRLKPDTVPAPCCVPASYNPMVLIQKTDTGVSLQTYDDLLAKDCHCI
chain 2: B5 chain 2
EC50 [2]: 6.3 nM | Emax (%) [2]: 100%

B9: long-acting GDF15 fusion protein (dimer) FM9-4 + Fc_hole (ΔN2, S64R; linker GS(EEEA)6) (Fc fusion)
chain 1: APEAAGGPSVFLFPPKPKDTLMISRTPEVTCVVVDVSHEDPEVKFNWYVDGVEVHNAKTKPREEQYASTYRVVSVLTVLHQDWLNGKEYKCKVSNKALPAPIEKTISKAKGQPREPQVYTLPPSREEMTKNQVSLWCLVKGFYPSDIAVEWESNGQPENNYKTTPPVLDSDGSFFLYSKLTVDKSRWQQGNVFSCSVMHEALHNHYTQKSLSLSPGKGSEEEAEEEAEEEAEEEAEEEAEEEANGDHCPLGPGRCCRLHTVRASLEDLGWADWVLSPREVQVTMCIGACPSQFRAANMHAQIKTRLHRLKPDTVPAPCCVPASYNPMVLIQKTDTGVSLQTYDDLLAKDCHCI
chain 2: B5 chain 2
EC50 [2]: 23.6 nM | Emax (%) [2]: 128%

B10: long-acting GDF15 fusion protein (dimer) FM9 + Fc_hole (ΔN2, S64R) (Fc fusion)
chain 1: APALAGGPSVFLFPPKPKDTLMISRTPEVTCVVVDVSHEDPEVKFNWYVDGVEVHNAKTKPREEQYNSTYRVVSVLTVLHQDWLNGKEYKCKVSNKALPAPIEKTISKAKGQPREPQVYTLPPSREEMTKNQVSLWCLVKGFYPSDIAVEWESNGQPENNYKTTPPVLDSDGSFFLYSKLTVDKSRWQQGNVFSCSVMHEALHNHYTQKSLSLSPGKGGGGSGGGGSGGGGSGGGGSGGGGSNGDHCPLGPGRCCRLHTVRASLEDLGWADWVLSPREVQVTMCIGACPSQFRAANMHAQIKTRLHRLKPDTVPAPCCVPASYNPMVLIQKTDTGVSLQTYDDLLAKDCHCI
chain 2: not shown
EC50 [3]: 5 nM | Emax (%) [relative to FWT 100%] [3]: 123%

B11: long-acting GDF15 fusion protein (dimer) FM3 + Fc_hole (ΔN2, R21N) (Fc fusion)
chain 1: B10 chain 1 with R261N, R304S
chain 2: not shown
EC50 [1]: 3.3 nM | Emax (%) [1]: 100%

B12: long-acting GDF15 fusion protein (dimer) FM4-3 + Fc_hole (ΔN2, N56L) (Fc fusion)
chain 1: B10 chain 1 with N296L, R304S
chain 2: not shown
EC50 [4]: 140 nM | Emax (%) [relative to FWT 100%] [4]: 34.3%

B13: long-acting GDF15 fusion protein (dimer) FM4-2 + Fc_hole (ΔN2, D103L) (Fc fusion)
chain 1: B10 chain 1 with R304S, D343L
chain 2: not shown
EC50 [4]: 10.6 nM | Emax (%) [relative to FWT 100%] [4]: 110%

B16: long-acting GDF15 fusion protein (dimer) FM12 + Fc_hole (ΔN2, R21N, S64R) (Fc fusion)
chain 1: B10 chain 1 with R261N
chain 2: not shown
EC50 [1]: 5.9 nM | Emax (%) [1]: 221%

B17: long-acting GDF15 fusion protein (dimer) FM4-1 + Fc_hole (ΔN2, N56S, D103S) (Fc fusion)
chain 1: B10 chain 1 with N296S, R304S, D343S
chain 2: not shown
EC50 [4]: 8.9 nM | Emax (%) [relative to FWT 100%] [4]: 86.4%

B18: long-acting GDF15 fusion protein (dimer) FM15 + Fc_hole (ΔN2, S64E) (Fc fusion)
chain 1: B10 chain 1 with R304E
chain 2: not shown
EC50 [3]: 33.6 nM | Emax (%) [relative to FWT 100%] [3]: 41%

B19: long-acting GDF15 fusion protein (dimer) FM4 + Fc_hole (ΔN2, N56C, D103C) (Fc fusion)
chain 1: B10 chain 1 with N296C, R304S, D343C
chain 2: not shown
EC50 [5]: 3.4 nM | Emax (%) [relative to FWT 100%] [5]: 133% | EC50 [4]: 3.6 nM | Emax (%) [relative to FWT 100%] [4]: 140%

Further lines, results first:

EC50 [1]: 2.9 nM | Emax (%) [1]: 270%
B2: long-acting GDF15 fusion protein (dimer) FM11 + Fc_hole (ΔN3, G4N, D5S, H6T, S64R) (Fc fusion)
chain 1: B1 chain 1 with S303R
chain 2: not shown

EC50 [1]: 1.7 nM | Emax (%) [1]: 100%
B3: long-acting GDF15 fusion protein (dimer) FM1 + Fc_hole (ΔN3, WS insertion, G4N, D5S, H6T) (Fc fusion)
chain 1: B4 chain 1 with R305S
chain 2: not shown

EC50 [2]: 5.3 nM | Emax (%) [2]: 100%
B6: long-acting GDF15 fusion protein (dimer) FM9-5 + Fc_hole (ΔN2, S64R; linker GSGGSS(PT)10) (Fc fusion)
chain 1: APEAAGGPSVFLFPPKPKDTLMISRTPEVTCVVVDVSHEDPEVKFNWYVDGVEVHNAKTKPREEQYASTYRVVSVLTVLHQDWLNGKEYKCKVSNKALPAPIEKTISKAKGQPREPQVYTLPPSREEMTKNQVSLWCLVKGFYPSDIAVEWESNGQPENNYKTTPPVLDSDGSFFLYSKLTVDKSRWQQGNVFSCSVMHEALHNHYTQKSLSLSPGKGSGGSSPTPTPTPTPTPTPTPTPTPTNGDHCPLGPGRCCRLHTVRASLEDLGWADWVLSPREVQVTMCIGACPSQFRAANMHAQIKTRLHRLKPDTVPAPCCVPASYNPMVLIQKTDTGVSLQTYDDLLAKDCHCI
chain 2: B5 chain 2

EC50 [2]: 9.3 nM | Emax (%) [2]: 95.6%
B8: long-acting GDF15 fusion protein (dimer) FM9-3 + Fc_hole (ΔN2, S64R; linker GS(G4S)7) (Fc fusion)
chain 1: APEAAGGPSVFLFPPKPKDTLMISRTPEVTCVVVDVSHEDPEVKFNWYVDGVEVHNAKTKPREEQYASTYRVVSVLTVLHQDWLNGKEYKCKVSNKALPAPIEKTISKAKGQPREPQVYTLPPSREEMTKNQVSLWCLVKGFYPSDIAVEWESNGQPENNYKTTPPVLDSDGSFFLYSKLTVDKSRWQQGNVFSCSVMHEALHNHYTQKSLSLSPGKGSGGGGSGGGGSGGGGSGGGGSGGGGSGGGGSGGGGSNGDHCPLGPGRCCRLHTVRASLEDLGWADWVLSPREVQVTMCIGACPSQFRAANMHAQIKTRLHRLKPDTVPAPCCVPASYNPMVLIQKTDTGVSLQTYDDLLAKDCHCI
chain 2: B5 chain 2

EC50 [3]: 9.6 nM | Emax (%) [relative to FWT 100%] [3]: 93.3%
B14: long-acting GDF15 fusion protein (dimer) FM13 + Fc_hole (ΔN2, S64N) (Fc fusion)
chain 1: B10 chain 1 with R304N
chain 2: not shown

EC50 [3]: 7.9 nM | Emax (%) [relative to FWT 100%] [3]: 48.2%
B15: long-acting GDF15 fusion protein (dimer) FM14 + Fc_hole (ΔN2, S64D) (Fc fusion)
chain 1: B10 chain 1 with R304D
chain 2: not shown
